Literature values in PMC9315744.

Experiments:
Experiment in all cases: MST
[1] = target: MHV spike glycoprotein ECD (Murine hepatitis virus) (UniProt P11224)
[2] = target: Nsp8 (SARS-CoV-2) (UniProt P0DTD1)
[3] = target: Nsp7/Nsp8 complex (SARS-CoV-2) (UniProt P0DTD1)

Chain of CEACAM1a (P31809 35-428): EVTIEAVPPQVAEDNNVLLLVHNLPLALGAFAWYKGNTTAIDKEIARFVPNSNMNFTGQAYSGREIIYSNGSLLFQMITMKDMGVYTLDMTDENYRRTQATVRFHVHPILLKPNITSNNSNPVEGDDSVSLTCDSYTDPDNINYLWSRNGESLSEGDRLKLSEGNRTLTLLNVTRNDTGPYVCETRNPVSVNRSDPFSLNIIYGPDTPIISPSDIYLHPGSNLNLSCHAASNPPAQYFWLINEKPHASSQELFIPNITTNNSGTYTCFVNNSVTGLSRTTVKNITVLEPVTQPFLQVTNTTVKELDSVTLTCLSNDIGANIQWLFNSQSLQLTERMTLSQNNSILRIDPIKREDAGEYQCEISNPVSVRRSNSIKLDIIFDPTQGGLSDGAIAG
Chain of MHV spike glycoprotein ECD (Murine hepatitis virus) (P11224 15-1231): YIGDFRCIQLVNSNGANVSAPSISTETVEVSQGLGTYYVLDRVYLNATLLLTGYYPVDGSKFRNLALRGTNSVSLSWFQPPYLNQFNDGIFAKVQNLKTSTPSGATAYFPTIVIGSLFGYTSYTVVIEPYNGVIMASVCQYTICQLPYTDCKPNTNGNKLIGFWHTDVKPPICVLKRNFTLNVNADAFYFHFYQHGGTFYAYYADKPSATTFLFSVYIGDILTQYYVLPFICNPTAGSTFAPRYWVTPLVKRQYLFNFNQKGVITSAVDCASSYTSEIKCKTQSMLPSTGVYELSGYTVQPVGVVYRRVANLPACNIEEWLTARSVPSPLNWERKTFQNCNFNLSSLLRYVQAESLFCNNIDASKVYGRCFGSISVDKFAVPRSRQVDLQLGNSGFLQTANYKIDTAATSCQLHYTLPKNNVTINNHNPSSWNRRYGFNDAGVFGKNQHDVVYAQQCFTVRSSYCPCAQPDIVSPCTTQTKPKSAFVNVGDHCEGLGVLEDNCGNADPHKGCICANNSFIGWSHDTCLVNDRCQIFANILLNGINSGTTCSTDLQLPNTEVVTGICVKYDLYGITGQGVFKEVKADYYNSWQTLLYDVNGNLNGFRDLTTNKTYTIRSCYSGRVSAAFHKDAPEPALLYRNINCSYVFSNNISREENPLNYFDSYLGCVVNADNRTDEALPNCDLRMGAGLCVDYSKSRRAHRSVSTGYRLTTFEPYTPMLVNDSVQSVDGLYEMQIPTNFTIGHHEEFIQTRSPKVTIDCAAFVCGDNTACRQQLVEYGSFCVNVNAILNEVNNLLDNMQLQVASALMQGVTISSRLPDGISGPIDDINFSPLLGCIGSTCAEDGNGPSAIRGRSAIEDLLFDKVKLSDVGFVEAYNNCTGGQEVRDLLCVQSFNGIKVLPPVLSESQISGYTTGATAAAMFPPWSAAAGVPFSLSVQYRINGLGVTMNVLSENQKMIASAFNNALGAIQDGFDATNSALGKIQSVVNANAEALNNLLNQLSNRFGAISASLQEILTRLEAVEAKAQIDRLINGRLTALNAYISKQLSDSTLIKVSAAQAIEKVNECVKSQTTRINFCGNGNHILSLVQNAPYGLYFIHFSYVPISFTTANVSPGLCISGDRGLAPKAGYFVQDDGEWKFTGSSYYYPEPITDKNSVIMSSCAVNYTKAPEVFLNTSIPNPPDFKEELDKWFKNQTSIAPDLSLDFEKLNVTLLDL

In the case of CEACAM1a (from UniProt P31809), the Kd [1] is listed as 0.0485 µM.
For Nsp15 (from UniProt P0DTD1), the Kd [2] is given as 16.3 µM and the Kd [3] is given as 6.48 µM.
